Source: patent publication US20060257938A1, “Method of screening for drugs that block ligand binding to a lipid binding protein” (priority 2005, published 2006)
Where “and” joins values, the source holds several entries; their conditions need not be identical. Equal values may be shown once.

Assays:
Assay type in all cases: binding
Details in all cases: response relative to ADIFAB2
[1] = Probe fluorescence ratio response to arachidonic acid relative to ADIFAB2
How it was run: (§1)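 Each fatty acid's response was expressed relative to ADIFAB2, the rI-FABP-L72A probe, as ΔR/ΔRreference. ΔR is the change in the background-corrected two-wavelength intensity ratio R=Fλ1/Fλ2 from its analyte-free baseline R0. Emission was read near about 420-480 nm for unbound and about 495-580 nm for FFA-bound probe.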

[2] = Probe fluorescence ratio response to linolenic acid relative to ADIFAB2
How it was run: as §1

[3] = Probe fluorescence ratio response to linoleic acid relative to ADIFAB2
How it was run: as §1

[4] = Probe fluorescence ratio response to oleic acid relative to ADIFAB2
How it was run: as §1

[5] = Probe fluorescence ratio response to palmitic acid relative to ADIFAB2
How it was run: as §1

B1: 55Q1, 72A (protein, listed as Rattus norvegicus)
chain: AFDGTWKVDRNENYEKFMEKMGINVVKRKLGAHDNLKLTITQEGNKFTVKESSNQRNIDVVFELGVDFAYSAADGTELTGTWTMEGNKLVGKFKRVDNGKELIAVREISGNELIQTYTYEGVEAKRIFKKE
modifications: PEPTIDE (1)...(131) wild-type rat intestinal fatty acid binding protein
- DR/DR AA ([1]; Arachidonic acid): 0.60
- DR/DR LNA [2]: 0.49
- DR/DR LA [3]: 0.47
- DR/DR OA [4]: 0.54
- DR/DR PA [5]: 0.43

B2: 60I, 72A (protein, listed as Rattus norvegicus)
chain: AFDGTWKVDRNENYEKFMEKMGINVVKRKLGAHDNLKLTITQEGNKFTVKESSNFRNIDIVFELGVDFAYSAADGTELTGTWTMEGNKLVGKFKRVDNGKELIAVREISGNELIQTYTYEGVEAKRIFKKE
modifications: PEPTIDE (1)...(131) wild-type rat intestinal fatty acid binding protein
- DR/DR AA ([1]; Arachidonic acid): 1.54
- DR/DR AA ([1]; arachidonic acid): 1.539
- DR/DR LNA [2]: 1.63 and 1.632
- DR/DR LA [3]: 1.73
- DR/DR OA [4]: 1.72 and 1.723
- DR/DR PA [5]: 1.52

B3: 55W2, 72A (protein, listed as Rattus norvegicus)
chain: AFDGTWKVDRNENYEKFMEKMGINVVKRKLGAHDNLKLTITQEGNKFTVKESSNWRNIDVVFELGVDFAYSAADGTELTGTWTMEGNKLVGKFKRVDNGKELIAVREISGNELIQTYTYEGVEAKRIFKKE
modifications: PEPTIDE (1)...(131) wild-type rat intestinal fatty acid binding protein
- DR/DR AA ([1]; Arachidonic acid): 0.77
- DR/DR LNA [2]: 0.82
- DR/DR LA [3]: 0.79
- DR/DR OA [4]: 0.70
- DR/DR PA [5]: 0.63

B4: 60H, 72A (protein, listed as Rattus norvegicus)
chain: AFDGTWKVDRNENYEKFMEKMGINVVKRKLGAHDNLKLTITQEGNKFTVKESSNFRNIDHVFELGVDFAYSAADGTELTGTWTMEGNKLVGKFKRVDNGKELIAVREISGNELIQTYTYEGVEAKRIFKKE
modifications: PEPTIDE (1)...(131) wild-type rat intestinal fatty acid binding protein
- DR/DR AA ([1]; Arachidonic acid): 0.17
- DR/DR LNA [2]: 0.18
- DR/DR LA [3]: 0.17
- DR/DR OA [4]: 0.17
- DR/DR PA [5]: 0.12

B5: 55S1, 72A (protein, listed as Rattus norvegicus)
chain: AFDGTWKVDRNENYEKFMEKMGINVVKRKLGAHDNLKLTITQEGNKFTVKESSNSRNIDVVFELGVDFAYSAADGTELTGTWTMEGNKLVGKFKRVDNGKELIAVREISGNELIQTYTYEGVEAKRIFKKE
modifications: PEPTIDE (1)...(131) wild-type rat intestinal fatty acid binding protein
- DR/DR AA ([1]; Arachidonic acid): 0.48
- DR/DR LNA [2]: 0.43
- DR/DR LA [3]: 0.42
- DR/DR OA [4]: 0.41
- DR/DR PA [5]: 0.41

B6: 60F, 72A (protein, listed as Rattus norvegicus)
chain: AFDGTWKVDRNENYEKFMEKMGINVVKRKLGAHDNLKLTITQEGNKFTVKESSNFRNIDFVFELGVDFAYSAADGTELTGTWTMEGNKLVGKFKRVDNGKELIAVREISGNELIQTYTYEGVEAKRIFKKE
modifications: PEPTIDE (1)...(131) wild-type rat intestinal fatty acid binding protein
- DR/DR AA ([1]; Arachidonic acid): 1.79
- DR/DR AA ([1]; arachidonic acid): 1.792
- DR/DR LNA [2]: 1.76 and 1.762
- DR/DR LA [3]: 1.68 and 1.684
- DR/DR OA [4]: 1.90 and 1.896
- DR/DR PA [5]: 1.53 and 1.526

B7: 60K, 72A (protein, listed as Rattus norvegicus)
chain: AFDGTWKVDRNENYEKFMEKMGINVVKRKLGAHDNLKLTITQEGNKFTVKESSNFRNIDKVFELGVDFAYSAADGTELTGTWTMEGNKLVGKFKRVDNGKELIAVREISGNELIQTYTYEGVEAKRIFKKE
modifications: PEPTIDE (1)...(131) wild-type rat intestinal fatty acid binding protein
- DR/DR AA ([1]; Arachidonic acid): 0.46
- DR/DR AA ([1]; arachidonic acid): 0.461
- DR/DR LNA [2]: 0.57 and 0.582
- DR/DR LA [3]: 0.62 and 0.619
- DR/DR OA [4]: 0.60 and 0.626
- DR/DR PA [5]: 0.35 and 0.310

B8: 55R1, 72A (protein, listed as Rattus norvegicus)
chain: AFDGTWKVDRNENYEKFMEKMGINVVKRKLGAHDNLKLTITQEGNKFTVKESSNRRNIDVVFELGVDFAYSAADGTELTGTWTMEGNKLVGKFKRVDNGKELIAVREISGNELIQTYTYEGVEAKRIFKKE
modifications: PEPTIDE (1)...(131) wild-type rat intestinal fatty acid binding protein
- DR/DR AA ([1]; Arachidonic acid): 0.40
- DR/DR LNA [2]: 0.37
- DR/DR LA [3]: 0.41
- DR/DR OA [4]: 0.39
- DR/DR PA [5]: 0.30

B9: 60L, 72A (protein, listed as Rattus norvegicus)
chain: AFDGTWKVDRNENYEKFMEKMGINVVKRKLGAHDNLKLTITQEGNKFTVKESSNFRNIDLVFELGVDFAYSAADGTELTGTWTMEGNKLVGKFKRVDNGKELIAVREISGNELIQTYTYEGVEAKRIFKKE
modifications: PEPTIDE (1)...(131) wild-type rat intestinal fatty acid binding protein
- DR/DR AA ([1]; Arachidonic acid): 1.08
- DR/DR AA ([1]; arachidonic acid): 1.075
- DR/DR LNA [2]: 1.26
- DR/DR LA [3]: 1.29 and 1.285
- DR/DR OA [4]: 1.27 and 1.272
- DR/DR PA [5]: 1.10 and 1.095

B10: 60M, 72A (protein, listed as Rattus norvegicus)
chain: AFDGTWKVDRNENYEKFMEKMGINVVKRKLGAHDNLKLTITQEGNKFTVKESSNFRNIDMVFELGVDFAYSAADGTELTGTWTMEGNKLVGKFKRVDNGKELIAVREISGNELIQTYTYEGVEAKRIFKKE
modifications: PEPTIDE (1)...(131) wild-type rat intestinal fatty acid binding protein
- DR/DR AA ([1]; Arachidonic acid): 0.77
- DR/DR LNA [2]: 0.93
- DR/DR LA [3]: 1.01
- DR/DR OA [4]: 0.91
- DR/DR PA [5]: 0.76

B11: 55T1, 72A (protein, listed as Rattus norvegicus)
chain: AFDGTWKVDRNENYEKFMEKMGINVVKRKLGAHDNLKLTITQEGNKFTVKESSNTRNIDVVFELGVDFAYSAADGTELTGTWTMEGNKLVGKFKRVDNGKELIAVREISGNELIQTYTYEGVEAKRIFKKE
modifications: PEPTIDE (1)...(131) wild-type rat intestinal fatty acid binding protein
- DR/DR AA ([1]; Arachidonic acid): 1.26
- DR/DR LNA [2]: 1.27
- DR/DR LA [3]: 1.25
- DR/DR OA [4]: 1.28
- DR/DR PA [5]: 1.12

B12: 55Y3, 72A (protein, listed as Rattus norvegicus)
chain: AFDGTWKVDRNENYEKFMEKMGINVVKRKLGAHDNLKLTITQEGNKFTVKESSNYRNIDVVFELGVDFAYSAADGTELTGTWTMEGNKLVGKFKRVDNGKELIAVREISGNELIQTYTYEGVEAKRIFKKE
modifications: PEPTIDE (1)...(131) wild-type rat intestinal fatty acid binding protein
- DR/DR AA ([1]; Arachidonic acid): 0.47
- DR/DR LNA [2]: 0.34
- DR/DR LA [3]: 0.32
- DR/DR OA [4]: 0.33
- DR/DR PA [5]: 0.25

B13: 60A, 72A (protein, listed as Rattus norvegicus)
chain: AFDGTWKVDRNENYEKFMEKMGINVVKRKLGAHDNLKLTITQEGNKFTVKESSNFRNIDAVFELGVDFAYSAADGTELTGTWTMEGNKLVGKFKRVDNGKELIAVREISGNELIQTYTYEGVEAKRIFKKE
modifications: PEPTIDE (1)...(131) wild-type rat intestinal fatty acid binding protein
- DR/DR AA ([1]; Arachidonic acid): 0.79
- DR/DR AA ([1]; arachidonic acid): 0.787
- DR/DR LNA [2]: 0.94 and 0.938
- DR/DR LA [3]: 0.98 and 0.977
- DR/DR OA [4]: 0.94 and 0.936
- DR/DR PA [5]: 0.74 and 0.742

B14: 60G, 72A (protein, listed as Rattus norvegicus)
chain: AFDGTWKVDRNENYEKFMEKMGINVVKRKLGAHDNLKLTITQEGNKFTVKESSNFRNIDGVFELGVDFAYSAADGTELTGTWTMEGNKLVGKFKRVDNGKELIAVREISGNELIQTYTYEGVEAKRIFKKE
modifications: PEPTIDE (1)...(131) wild-type rat intestinal fatty acid binding protein
- DR/DR AA ([1]; Arachidonic acid): 0.29
- DR/DR LNA [2]: 0.24
- DR/DR LA [3]: 0.25
- DR/DR OA [4]: 0.24
- DR/DR PA [5]: 0.19

B15: 60C, 72A (protein, listed as Rattus norvegicus)
chain: AFDGTWKVDRNENYEKFMEKMGINVVKRKLGAHDNLKLTITQEGNKFTVKESSNFRNIDCVFELGVDFAYSAADGTELTGTWTMEGNKLVGKFKRVDNGKELIAVREISGNELIQTYTYEGVEAKRIFKKE
modifications: PEPTIDE (1)...(131) wild-type rat intestinal fatty acid binding protein
- DR/DR AA ([1]; Arachidonic acid): 1.30
- DR/DR LNA [2]: 1.36
- DR/DR LA [3]: 1.33
- DR/DR OA [4]: 1.34
- DR/DR PA [5]: 1.04
